From paper PMC5422525 come the findings set out here.

The target in experiment [1] is Caulobacter crescentus ClpX (C. crescentus) (UniProt B8GX14).
Experiment [2] has as its target Escherichia coli ClpX (E. coli) (UniProt P0A6H1).
UniProt P0A6H1, sequence (P0A6H1 whole entry): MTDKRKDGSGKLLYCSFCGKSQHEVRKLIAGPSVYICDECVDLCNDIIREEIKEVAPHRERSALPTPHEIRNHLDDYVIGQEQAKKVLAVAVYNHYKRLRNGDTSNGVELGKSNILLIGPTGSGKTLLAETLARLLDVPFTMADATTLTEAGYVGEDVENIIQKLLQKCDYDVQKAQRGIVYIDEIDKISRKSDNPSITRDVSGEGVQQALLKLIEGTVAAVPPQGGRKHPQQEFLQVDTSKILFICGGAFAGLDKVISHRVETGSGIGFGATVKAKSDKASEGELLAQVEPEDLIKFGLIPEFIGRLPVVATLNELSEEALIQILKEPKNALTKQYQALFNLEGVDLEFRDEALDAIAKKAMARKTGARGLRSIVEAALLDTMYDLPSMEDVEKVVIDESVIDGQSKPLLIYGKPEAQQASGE

UniProt B8GX14, sequence (B8GX14 whole entry): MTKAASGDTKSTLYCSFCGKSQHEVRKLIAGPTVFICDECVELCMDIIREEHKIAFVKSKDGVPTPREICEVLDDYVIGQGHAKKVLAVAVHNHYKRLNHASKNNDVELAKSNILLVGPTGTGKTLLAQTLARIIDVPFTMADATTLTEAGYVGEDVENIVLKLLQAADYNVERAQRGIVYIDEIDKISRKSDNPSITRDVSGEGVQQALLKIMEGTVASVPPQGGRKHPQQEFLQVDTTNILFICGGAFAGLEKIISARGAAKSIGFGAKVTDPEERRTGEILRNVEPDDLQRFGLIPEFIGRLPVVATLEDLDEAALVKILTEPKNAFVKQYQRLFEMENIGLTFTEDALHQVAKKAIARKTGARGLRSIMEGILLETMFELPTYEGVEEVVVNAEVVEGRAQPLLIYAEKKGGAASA

As to “Caulobacter crescentus ClpP (from UniProt B8GX16 1-209) (enzyme)”, the values for the K (activation): degradation of 1 uM GFP-ssrA by 50 nM ClpX6 with varying concentrations of ClpP14, initial rates fitted to a first-order binding equation in experiment [1] and in experiment [2] were 9.1 nM and 12.1 nM, respectively.
As to “Escherichia coli ClpP (from UniProt P0A6G7 15-207) (enzyme)”, the K (activation): degradation of 1 uM GFP-ssrA by 50 nM ClpX6 with varying concentrations of ClpP14, initial rates fitted to a first-order binding equation in experiment [2] was 24.1 nM.
